# Test results taken from patent publication US7670806B2, “ADP-ribosyl acceptor hydrolase 3 (ARH3) polypeptides and methods of use” (The United States of America as represented by the …, priority 2005, dated 2010).
# B1: ARH3 (D77N/D78N): human ARH3 mutant with dual amino acid replacement D77N/D78N (protein)
# chain: MAAAAMAAAAGGGAGAARSLSRFRGCLAGALLGDCVGSFYEAHDTVDLTSVLRHVQSLEPDPGTPGSERTEALYYTNNTAMARALVQSLLAKEAFDEVDMAHRFAQEYKKDPDRGYGAGVVTVFKKLLNPKCRDVFEPARAQFNGKGSYGNGGAMRVAGISLAYSSVQDVQKFARLSAQLTHASSLGYNGAILQALAVHLALQGESSSEHFLKQLLGHMEDLEGDAQSVLDARELGMEERPYSSRLKKIGELLDQASVTREEVVSELGNGIAAFESVPTAIYCFLRCMEPDPEIPSAFNSLQRTLIYSISLGGDTDTIATMAGAIAGAYYGMDQVPESWQQSCEGYEETDILAQSLHRVFQKS
# Experiment: Hydrolysis of O-acetyl-[14C]ADP-ribose by ARH proteins / PARG (RP-HPLC)
# Type: biochemical
# Conditions: 1.5 pmol wild type or mutant human ARH3 or 20 mU PARG, 2 h at 30° C.; mouse ARH1, 2, 3
# Description: FIG. 13A is a graph illustrating the results from incubation of 1.5 pmol of mouse ARH3 with or without 5 mM DTT and/or 10 mM MgCl2 as described in FIG. 11B with incubation for 1 h at 30° C. FIG. 13B is a graph illustrating the results from incubation of 1.5 pmol of wild type or mutant human (D77-78) ARH3 or 20 mU of PARG for 2 h at 30° C. *D77,78, assays incubated with 15 pmol of mutant human ARH3 (D77, D78).
# FIG. 14A is a graph of the results from incubation with the indicated amount of mouse ARH1, 2, or 3 for 2 h at 30° C. FIG. 14B is a graph of the results from incubation with 230 pmol of mouse ARH1 at 30° C. for the indicated time.
# Mouse ARH3 (2 pmol) and 2.5 μM O-acetyl-[^14C]ADP-ribose (5,000 cpm) in 200 μl of buffer containing 50 mM potassium phosphate (pH 7.0), 10 mM MgCl2 and 5 mM DTT were incubated for 2 h at 30° C., before separation of substrate and products using RP-HPLC as described below.
# Hydrolysis of O-acetyl-[^14C]ADP-ribose catalyzed by ARH3. Assays containing the indicated concentration of O-acetyl-[^14C]-ADP-ribose (0.1 to 2 nmol, 1,000 to 20,000 cpm) and 1.5 pmol of ARH3 in 200 μl of buffer (50 mM KPO4 (pH 7.0), 10 mM MgCl2, 5 mM DTT) were incubated at 30° C. for 20 min. Substrate and products were separated using RP-HPLC. Amounts of product were corrected for ADP-ribose produced in the absence of ARH3 before calculation of hydrolysis rates.
# Because O-acetyl-ADP-ribose was known to be hydrolyzed at alkaline pH Tanny and Moazed (2001), Proc Natl Acad Sci USA. 98(2):415-20, Epub Dec. 26, 2000), it was generated at pH 7.0 in the presence of [^14C-adenine] β-NAD, Sir2, and acetylated histone H3 peptide (FIG. 11A), and the products of Sir2 and ARH3 were analyzed using reverse-phase HPLC at the same pH (FIGS. 11A,B). The products of the ARH3-catalyzed reaction were also analyzed by high resolution-polyacrylamide gel electrophoresis (FIG. 11C). O-acetyl-[^14C]ADP-ribose hydrolase activity was time and ARH3 dependent (FIG. 12) and essentially completely dependent on Mg^2+ (FIG. 13A).
# O-acetyl-ADP-ribose hydrolysis by ARH1 was time and ARH1 dependent (FIG. 14b).
molecule,measurement,value
B1,O-acetyl-ADP-ribose hydrolysis (in words),apparently inactive
